Laboratory results as given in doi:10.1101/2021.05.25.445547.
“And” between values parts separate entries of the source, which are not always exact repeats. Equal entries are not always repeated. Values belong to the molecule of their own block, whether it stands above or below them.

Experiments:
[1] = biological target: optimized bait-PAR-Grb2 with inserted flexible linker sequences, GFP-fused (UniProt P62993); test: subcellular micropatterning
[2] = biological target: optimized bait-PAR-Grb2 with inserted flexible linker sequences, GFP-fused (UniProt P62993); test: TIR-FRAP on micropatterned bait
[3] = biological target: optimized bait-PAR-Grb2 with inserted flexible linker sequences, RFP-fused (UniProt P62993); test: subcellular micropatterning
[4] = biological target: T1, optimized bait-PAR-Grb2 with inserted flexible linker sequences, RFP-fused, P62993; test: subcellular micropatterning; details: remark: other sources report otherwise
[5] = biological target: T1, optimized bait-PAR-Grb2 with inserted …; test: TIR-FRAP on micropatterned bait; details: remark: other sources report otherwise

bait-normalized fluorescence contrast <c (prey/bait)>, after EGF [1]: 0.45
bait-normalized fluorescence contrast <c (prey/bait)>, unstimulated cells [1]: 0.14
halftime of dissociation (FRAP) [2]: 10 s
k slow (exchange rate, bi-exponential FRAP fit) [2]: 0.103 s⁻¹
Molecule: SHC-transforming protein 1 (Shc1), RFP-fused (from UniProt P29353 1-583) (natural protein)

EC50 [3]: 68 µM and 63 µM
dissociation half-life of Gab1 from Grb2 at 100 μM peptide [3]: 42 s
dissociation half-life of SOS1 from Grb2 at 100 μM peptide [3]: 36 s
maximum prey dissociation (Gab1 and SOS1 from Grb2) at 100 μM peptide [3]: 70 to 75%
Molecule: cell-permeable cyclic peptide cyclo(YpVNFΦrpPRR)

bait-normalized fluorescence contrast <c (prey/bait)>, after EGF [4]: 0.56
bait-normalized fluorescence contrast <c (prey/bait)>, basal conditions [4]: 0.55
reduction of copatterning with 10 μM actinomycin D [4]: 25%
halftime of dissociation (FRAP) [5]: 13 s
k slow (exchange rate, bi-exponential FRAP fit) [5]: 0.074 s⁻¹
B1: son of sevenless protein 1 (SOS1), GFP-fused, Q07889 1-1333 (natural protein)
chain: MQAQQLPYEFFSEENAPKWRGLLVPALKKVQGQVHPTLESNDDALQYVEELILQLLNMLCQAQPRSASDVEERVQKSFPHPIDKWAIADAQSAIEKRKRRNPLSLPVEKIHPLLKEVLGYKIDHQVSVYIVAVLEYISADILKLVGNYVRNIRHYEITKQDIKVAMCADKVLMDMFHQDVEDINILSLTDEEPSTSGEQTYYDLVKAFMAEIRQYIRELNLIIKVFREPFVSNSKLFSANDVENIFSRIVDIHELSVKLLGHIEDTVEMTDEGSPHPLVGSCFEDLAEELAFDPYESYARDILRPGFHDRFLSQLSKPGAALYLQSIGEGFKEAVQYVLPRLLLAPVYHCLHYFELLKQLEEKSEDQEDKECLKQAITALLNVQSGMEKICSKSLAKRRLSESACRFYSQQMKGKQLAIKKMNEIQKNIDGWEGKDIGQCCNEFIMEGTLTRVGAKHERHIFLFDGLMICCKSNHGQPRLPGASNAEYRLKEKFFMRKVQINDKDDTNEYKHAFEIILKDENSVIFSAKSAEEKNNWMAALISLQYRSTLERMLDVTMLQEEKEEQMRLPSADVYRFAEPDSEENIIFEENMQPKAGIPIIKAGTVIKLIERLTYHMYADPNFVRTFLTTYRSFCKPQELLSLIIERFEIPEPEPTEADRIAIENGDQPLSAELKRFRKEYIQPVQLRVLNVCRHWVEHHFYDFERDAYLLQRMEEFIGTVRGKAMKKWVESITKIIQRKKIARDNGPGHNITFQSSPPTVEWHISRPGHIETFDLLTLHPIEIARQLTLLESDLYRAVQPSELVGSVWTKEDKEINSPNLLKMIRHTTNLTLWFEKCIVETENLEERVAVVSRIIEILQVFQELNNFNGVLEVVSAMNSSPVYRLDHTFEQIPSRQKKILEEAHELSEDHYKKYLAKLRSINPPCVPFFGIYLTNILKTEEGNPEVLKRHGKELINFSKRRKVAEITGEIQQYQNQPYCLRVESDIKRFFENLNPMGNSMEKEFTDYLFNKSLEIEPRNPKPLPRFPKKYSYPLKSPGVRPSNPRPGTMRHPTPLQQEPRKISYSRIPESETESTASAPNSPRTPLTPPPASGASSTTDVCSVFDSDHSSPFHSSNDTVFIQVTLPHGPRSASVSSISLTKGTDEVPVPPPVPPRRRPESAPAESSPSKIMSKHLDSPPAIPPRQPTSKAYSPRYSISDRTSISDPPESPPLLPPREPVRTPDVFSSSPLHLQPPPLGKKSDHGNAFFPNSPSPFTPPPPQTPSPHGTRRHLPSPPLTQEVDLHSIAGPPVPPRQSTSQHIPKLPPKTYKREHTHPSMHRDGPPLLENAHSS
